In doi:10.1101/2024.05.27.596032 (bioRxiv, 2024):
“And” between values parts separate entries of the source, which are not always exact repeats. Equal values may be shown once. Read-outs that look alike come from different tables or passages of the source.

Key:
Experiment in all cases: SEC
[1] = biological target: Listeria monocytogenes NrdR (Listeria monocytogenes serotype 1/2a str, S10403S) (UniProt B8DHI6)
[2] = biological target: Listeria monocytogenes NrdR (Listeria monocytogenes serotype 1/2a str, S10403S) (UniProt B8DHI6); remark: listed apart in the source
[3] = biological target: Listeria monocytogenes NrdR (Listeria monocytogenes serotype 1/2a str, S10403S) (UniProt B8DHI6); remark: listed apart in the source
[4] = biological target: Listeria monocytogenes NrdR (Listeria monocytogenes serotype 1/2a str, S10403S) (UniProt B8DHI6); remark: listed apart in the source
[5] = biological target: Listeria monocytogenes NrdR (Listeria monocytogenes serotype 1/2a str, S10403S) (UniProt B8DHI6); remark: listed apart in the source
[6] = biological target: Listeria monocytogenes NrdR (Listeria monocytogenes serotype 1/2a str, S10403S) (UniProt B8DHI6); remark: listed apart in the source
[7] = biological target: the molecule itself

Q: What does the source list for “Listeria monocytogenes NrdR (from UniProt B8DHI6 1-154) (natural protein)”?
A: stoichiometry N [1]: 4; stoichiometry N [2]: 4; stoichiometry N [3]: 2; stoichiometry N [4]: 4; stoichiometry N [5]: 8; stoichiometry N [6]: 4

B1: Streptococcus pneumoniae NrdR (natural protein, Streptococcus pneumoniae TIGR4, UniProt P67318 1-157, looked up)
chain: MRCPKCGATKSSVIDSRQAEEGNTIRRRRECDECQHRFTTYERVEERTLVVVKKDGTREQFSRDKIFNGIIRSAQKRPVSSDEINMVVNRIEQKLRGRNENEIQSEDIGSLVMEELAELDEITYVRFASVYRSFKDVSELESLLQQITQSSKKKKER
Q: How did the “stoichiometry N” value [7] turn out when B1 was run?
A: 2 and 4
